Assay results as given in paper PMC9351484.
Where “and” joins values, the source holds several entries; their conditions need not be identical. Identical values can stand only once.

What was measured:
TPP1 (human) = test: native MS
TRF1 (human) [1] = target: TRF1 (human) (UniProt P54274); test: mass photometry
TRF1 (human) [2] = target: TRF1 (human) (UniProt P54274); test: native MS
Target sequence in this assay (P54274 whole entry): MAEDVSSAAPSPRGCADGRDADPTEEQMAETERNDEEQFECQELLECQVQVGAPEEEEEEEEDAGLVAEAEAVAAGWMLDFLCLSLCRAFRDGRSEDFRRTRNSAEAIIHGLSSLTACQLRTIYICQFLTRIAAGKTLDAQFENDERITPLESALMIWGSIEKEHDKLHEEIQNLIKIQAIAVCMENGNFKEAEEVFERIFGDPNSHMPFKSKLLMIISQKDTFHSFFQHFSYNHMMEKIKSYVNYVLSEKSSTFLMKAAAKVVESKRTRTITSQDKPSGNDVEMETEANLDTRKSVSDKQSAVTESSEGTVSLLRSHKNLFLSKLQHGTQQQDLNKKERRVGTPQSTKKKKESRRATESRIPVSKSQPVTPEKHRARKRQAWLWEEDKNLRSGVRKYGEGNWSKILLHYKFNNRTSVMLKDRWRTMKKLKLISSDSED

[3] = target: TRF2/Rap1 complex (human) (UniProt Q9NYB0); test: co-sedimentation + other: mass photometry
[4] = target: TRF2/His6MBP-Rap1 complex (human) (UniProt Q9NYB0); test: pull-down + other: mass photometry
Sequence of TRF2/His6MBP-Rap1 complex (human) (Q9NYB0 whole entry, looked up, one chain of several): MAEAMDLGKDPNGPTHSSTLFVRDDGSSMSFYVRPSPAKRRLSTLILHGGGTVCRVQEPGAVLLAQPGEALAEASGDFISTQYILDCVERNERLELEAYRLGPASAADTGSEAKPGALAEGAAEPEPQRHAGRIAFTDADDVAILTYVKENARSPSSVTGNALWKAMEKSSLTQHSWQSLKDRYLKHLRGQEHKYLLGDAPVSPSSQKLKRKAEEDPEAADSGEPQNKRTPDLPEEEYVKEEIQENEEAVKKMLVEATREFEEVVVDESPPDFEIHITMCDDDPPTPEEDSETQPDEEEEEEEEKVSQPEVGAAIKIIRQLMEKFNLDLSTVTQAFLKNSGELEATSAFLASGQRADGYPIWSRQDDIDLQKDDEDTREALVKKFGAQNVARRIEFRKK

POT1 (human) = POT1 (human) (UniProt Q9NUX5); test: native MS
Sequence of POT1 (human) (Q9NUX5 whole entry): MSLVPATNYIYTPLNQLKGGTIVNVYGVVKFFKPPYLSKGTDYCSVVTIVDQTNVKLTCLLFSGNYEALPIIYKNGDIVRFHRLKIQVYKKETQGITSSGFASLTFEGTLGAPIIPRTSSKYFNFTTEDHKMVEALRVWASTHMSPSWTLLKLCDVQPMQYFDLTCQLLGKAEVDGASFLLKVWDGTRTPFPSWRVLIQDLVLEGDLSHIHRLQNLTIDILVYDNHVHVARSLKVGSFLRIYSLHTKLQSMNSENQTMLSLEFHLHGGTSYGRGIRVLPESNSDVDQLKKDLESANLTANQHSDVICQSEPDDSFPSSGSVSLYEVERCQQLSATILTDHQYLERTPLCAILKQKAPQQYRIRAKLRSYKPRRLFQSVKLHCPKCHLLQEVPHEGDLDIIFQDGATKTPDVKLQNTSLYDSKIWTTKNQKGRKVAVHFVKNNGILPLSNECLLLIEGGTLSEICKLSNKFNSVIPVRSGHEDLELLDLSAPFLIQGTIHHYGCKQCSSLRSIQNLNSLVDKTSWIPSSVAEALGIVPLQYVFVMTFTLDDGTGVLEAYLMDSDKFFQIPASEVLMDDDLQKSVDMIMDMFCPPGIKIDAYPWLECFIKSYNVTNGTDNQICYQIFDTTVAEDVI

POT1;TPP1N [5] = target: T1, POT1;TPP1N (human;human, UniProt Q9NUX5;Q96AP0 1-634;1-251, |); test: size-exclusion chromatography and negative-stain EM
T1 sequence (Q9NUX5 whole entry, chain 1 of 2): as the sequence (Q9NUX5 whole entry) above
T1 sequence (Q96AP0 1-251, chain 2 of 2): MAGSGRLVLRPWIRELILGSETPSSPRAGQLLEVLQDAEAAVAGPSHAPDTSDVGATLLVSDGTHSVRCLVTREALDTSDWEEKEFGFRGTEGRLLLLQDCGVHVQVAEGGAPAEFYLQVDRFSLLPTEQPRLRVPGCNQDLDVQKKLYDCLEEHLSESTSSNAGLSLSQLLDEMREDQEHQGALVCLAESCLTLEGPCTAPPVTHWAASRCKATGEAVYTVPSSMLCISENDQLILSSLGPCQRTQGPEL

POT1;TPP1N [6] = target: T1, POT1;TPP1N; test: negative-stain EM
POT1;TPP1;GFP-TIN2 = POT1;TPP1;GFP-TIN2 (human;human;human, UniProt Q9NUX5;Q96AP0;Q9BSI4-2 1-634;1-458;1-352, ||); test: negative-stain EM
Sequence of POT1;TPP1;GFP-TIN2 (Q9NUX5 whole entry, chain 1 of 3): as the sequence (Q9NUX5 whole entry) above
Sequence of POT1;TPP1;GFP-TIN2 (Q96AP0 whole entry, chain 2 of 3): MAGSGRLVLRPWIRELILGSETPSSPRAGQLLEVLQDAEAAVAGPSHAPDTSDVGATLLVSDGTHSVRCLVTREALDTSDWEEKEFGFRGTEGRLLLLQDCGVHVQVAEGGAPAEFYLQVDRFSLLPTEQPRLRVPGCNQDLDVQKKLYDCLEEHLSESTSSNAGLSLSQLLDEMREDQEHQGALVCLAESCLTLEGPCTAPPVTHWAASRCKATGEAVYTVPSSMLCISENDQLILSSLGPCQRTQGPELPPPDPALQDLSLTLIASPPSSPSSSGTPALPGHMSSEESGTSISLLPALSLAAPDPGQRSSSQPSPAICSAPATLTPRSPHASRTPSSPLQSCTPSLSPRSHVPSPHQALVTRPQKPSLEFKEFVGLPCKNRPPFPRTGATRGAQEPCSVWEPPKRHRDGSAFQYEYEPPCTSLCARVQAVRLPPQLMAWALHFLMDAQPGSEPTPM
Sequence of POT1;TPP1;GFP-TIN2 (Q9BSI4 1-352, chain 3 of 3): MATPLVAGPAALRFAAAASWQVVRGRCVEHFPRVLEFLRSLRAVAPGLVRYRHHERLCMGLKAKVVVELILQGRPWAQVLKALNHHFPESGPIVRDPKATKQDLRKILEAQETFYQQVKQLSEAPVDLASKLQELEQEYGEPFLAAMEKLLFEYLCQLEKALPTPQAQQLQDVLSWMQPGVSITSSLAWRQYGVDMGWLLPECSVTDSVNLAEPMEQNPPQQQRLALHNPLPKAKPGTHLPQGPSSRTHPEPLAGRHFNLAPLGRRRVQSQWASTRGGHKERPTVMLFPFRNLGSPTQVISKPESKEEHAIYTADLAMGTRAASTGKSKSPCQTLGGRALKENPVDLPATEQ

Sequence of POT1/TPP1/GFP-TIN2 complex (Q9NUX5 whole entry, looked up, one chain of several): as the sequence (Q9NUX5 whole entry) above
Sequence of TRF2/Rap1 complex (human) (Q9NYB0 whole entry, looked up, one chain of several): as the sequence (Q9NYB0 whole entry, looked up, one chain of several) above
Sequence of GFP-TIN2 (natural protein) (Q9BSI4 2-451): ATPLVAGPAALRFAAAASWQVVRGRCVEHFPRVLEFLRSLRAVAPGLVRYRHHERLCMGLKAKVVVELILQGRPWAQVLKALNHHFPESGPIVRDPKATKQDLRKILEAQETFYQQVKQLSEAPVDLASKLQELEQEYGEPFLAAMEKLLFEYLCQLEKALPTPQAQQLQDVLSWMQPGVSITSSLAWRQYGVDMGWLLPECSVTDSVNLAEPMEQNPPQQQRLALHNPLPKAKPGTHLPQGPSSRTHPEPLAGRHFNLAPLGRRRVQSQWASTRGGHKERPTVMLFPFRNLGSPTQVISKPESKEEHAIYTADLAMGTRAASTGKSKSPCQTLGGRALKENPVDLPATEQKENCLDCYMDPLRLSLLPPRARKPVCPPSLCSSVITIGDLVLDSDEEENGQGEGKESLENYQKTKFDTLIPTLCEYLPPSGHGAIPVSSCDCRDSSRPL
Sequence of TRF1/GFP-TIN2 complex (P54274 whole entry): as the sequence (P54274 whole entry) above
Sequence of TRF1/GFP-TIN2 complex (Q9BSI4 1-352): as the sequence (Q9BSI4 1-352, chain 3 of 3) above
Sequence of POT1/TPP1/GFP-TIN2/TRF1 complex (P54274 whole entry, looked up): as the sequence (P54274 whole entry) above
Sequence of POT1/TPP1/GFP-TIN2/TRF1 complex (Q9NUX5 whole entry, looked up): as the sequence (Q9NUX5 whole entry) above
Sequence of TRF1 (P54274 2-439): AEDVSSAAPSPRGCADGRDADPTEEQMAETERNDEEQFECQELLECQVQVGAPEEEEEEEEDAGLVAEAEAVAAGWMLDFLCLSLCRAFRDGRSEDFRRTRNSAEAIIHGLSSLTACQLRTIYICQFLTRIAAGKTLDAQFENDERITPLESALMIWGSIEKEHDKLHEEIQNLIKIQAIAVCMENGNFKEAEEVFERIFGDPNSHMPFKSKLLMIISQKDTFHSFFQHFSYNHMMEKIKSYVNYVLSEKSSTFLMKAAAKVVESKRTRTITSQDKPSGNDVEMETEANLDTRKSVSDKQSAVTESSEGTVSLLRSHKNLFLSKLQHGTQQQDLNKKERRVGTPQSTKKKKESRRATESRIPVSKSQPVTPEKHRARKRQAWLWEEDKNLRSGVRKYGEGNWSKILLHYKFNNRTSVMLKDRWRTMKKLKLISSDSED
Sequence of TPP1 (natural protein) (Q96AP0 whole entry): as the sequence (Q96AP0 whole entry, chain 2 of 3) above
Sequence of TPP1 (human) (Q96AP0 whole entry): as the sequence (Q96AP0 whole entry, chain 2 of 3) above

Molecule: GFP-TIN2 (natural protein)
- stoichiometry N (TIN2 per TPP1) (TPP1 (human)): 1
- stoichiometry N (TIN2 per TRF1 dimer) (TRF1 (human) [1]): 2

Molecule: POT1/TPP1/GFP-TIN2 complex (from UniProt Q9NUX5 1-634)
- stoichiometry N (POT1/TPP1/GFP-TIN2 per TRF1 dimer) (TRF1 (human) [2]): 1 and 2
- stoichiometry N (POT1/TPP1/TIN2 per (TRF2/Rap1)2) [3]: 1 and 2
- stoichiometry N (POT1/TPP1/GFP-TIN2 per TRF1 dimer) (TRF1 (human) [1]): 1 and 2

Molecule: POT1/TPP1/GFP-TIN2/TRF1 complex (from UniProt Q9NUX5;P54274)
- stoichiometry N [4]: 1

Molecule: TPP1 (natural protein)
- stoichiometry N (TPP1 per POT1) (POT1 (human)): 1

Molecule: TRF1 (from UniProt P54274 1-439) (natural protein)
- stoichiometry N (TRF1 (human) [1]): 2

Molecule: TRF1/GFP-TIN2 complex (from UniProt P54274;Q9BSI4)
- stoichiometry N ((TRF1/GFP-TIN2)2 per (TRF2/Rap1)2) [3]: 1

Molecule: GGTTAGGGTTAG (ssDNA) [5'-biotin-(GGTTAG)2]
- binding result (POT1;TPP1N [5]): binds

Molecule: GGTTAGGGTTAGGGTTAGGGTTAG (ssDNA) [5'-biotin-(GGTTAG)4]
- binding result (POT1;TPP1N [6]): binds
- binding result (POT1;TPP1;GFP-TIN2): binds
